Earlier results as cited in paper PMC7143316.

Assays:
[1] = molecular target: Kv1.2 (Homo sapiens) (UniProt P16389)
[2] = molecular target: Kv1.3 (Homo sapiens) (UniProt P22001)
[3] = molecular target: Kv1.1 (Homo sapiens) (UniProt Q09470)
Chain of UniProt Q09470 (Q09470 whole entry): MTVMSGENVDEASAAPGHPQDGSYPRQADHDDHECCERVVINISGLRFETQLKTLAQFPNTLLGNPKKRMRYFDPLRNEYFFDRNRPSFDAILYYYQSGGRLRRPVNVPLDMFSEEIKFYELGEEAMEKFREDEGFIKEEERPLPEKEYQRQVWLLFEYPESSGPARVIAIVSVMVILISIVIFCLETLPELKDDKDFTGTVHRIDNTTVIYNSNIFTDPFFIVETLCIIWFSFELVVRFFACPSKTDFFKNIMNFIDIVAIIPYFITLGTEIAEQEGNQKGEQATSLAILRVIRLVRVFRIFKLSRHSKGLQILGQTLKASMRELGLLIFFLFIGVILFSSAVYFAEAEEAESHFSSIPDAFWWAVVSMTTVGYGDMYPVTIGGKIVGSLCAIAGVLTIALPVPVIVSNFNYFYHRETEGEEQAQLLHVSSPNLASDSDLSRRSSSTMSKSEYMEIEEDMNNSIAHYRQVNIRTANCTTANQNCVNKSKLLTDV

Chain of UniProt P16389 (P16389 whole entry): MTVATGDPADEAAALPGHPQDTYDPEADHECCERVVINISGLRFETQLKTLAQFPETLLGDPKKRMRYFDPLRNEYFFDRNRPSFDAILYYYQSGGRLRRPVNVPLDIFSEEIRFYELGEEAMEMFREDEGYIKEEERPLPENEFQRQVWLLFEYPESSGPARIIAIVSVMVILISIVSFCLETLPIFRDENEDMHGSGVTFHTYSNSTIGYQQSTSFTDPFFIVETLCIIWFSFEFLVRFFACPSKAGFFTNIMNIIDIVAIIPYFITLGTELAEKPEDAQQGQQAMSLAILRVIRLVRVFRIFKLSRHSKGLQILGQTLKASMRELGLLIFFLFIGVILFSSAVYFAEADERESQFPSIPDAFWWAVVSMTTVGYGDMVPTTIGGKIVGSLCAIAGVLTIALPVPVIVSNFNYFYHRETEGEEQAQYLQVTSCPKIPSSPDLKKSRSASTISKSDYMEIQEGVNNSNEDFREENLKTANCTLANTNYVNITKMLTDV
Chain of UniProt P22001 (P22001 whole entry): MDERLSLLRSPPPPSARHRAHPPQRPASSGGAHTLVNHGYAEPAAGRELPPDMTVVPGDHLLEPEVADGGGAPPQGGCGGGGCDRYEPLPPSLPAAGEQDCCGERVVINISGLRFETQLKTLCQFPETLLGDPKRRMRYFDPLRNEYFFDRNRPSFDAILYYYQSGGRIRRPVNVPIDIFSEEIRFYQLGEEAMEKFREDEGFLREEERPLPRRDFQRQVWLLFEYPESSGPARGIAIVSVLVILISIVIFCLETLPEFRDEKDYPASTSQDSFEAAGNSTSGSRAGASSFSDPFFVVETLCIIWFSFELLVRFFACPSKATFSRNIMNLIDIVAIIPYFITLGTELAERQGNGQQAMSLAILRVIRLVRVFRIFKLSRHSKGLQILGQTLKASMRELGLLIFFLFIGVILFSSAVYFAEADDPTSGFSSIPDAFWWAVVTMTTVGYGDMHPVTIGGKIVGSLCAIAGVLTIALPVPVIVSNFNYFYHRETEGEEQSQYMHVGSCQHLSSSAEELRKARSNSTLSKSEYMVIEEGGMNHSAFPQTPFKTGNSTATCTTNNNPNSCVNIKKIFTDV

In the case of BgK (from UniProt P29186), the Kd [1] is listed as 0.015 µM, the Kd [2] is listed as 0.01 µM and the Kd [3] is listed as 0.006 µM.
